Measurements reported in US11541101 (UNIVERSITY OF VIRGINIA PATENT FOUNDATION, dated 2023).

Molecular target: T1, LEM domain containing protein 3 (LEMD3), endogenous (human, UniProt Q9Y2U8 2-911)
T1 construct: also called endogenous LEMD3; native LEMD3
T1 sequence: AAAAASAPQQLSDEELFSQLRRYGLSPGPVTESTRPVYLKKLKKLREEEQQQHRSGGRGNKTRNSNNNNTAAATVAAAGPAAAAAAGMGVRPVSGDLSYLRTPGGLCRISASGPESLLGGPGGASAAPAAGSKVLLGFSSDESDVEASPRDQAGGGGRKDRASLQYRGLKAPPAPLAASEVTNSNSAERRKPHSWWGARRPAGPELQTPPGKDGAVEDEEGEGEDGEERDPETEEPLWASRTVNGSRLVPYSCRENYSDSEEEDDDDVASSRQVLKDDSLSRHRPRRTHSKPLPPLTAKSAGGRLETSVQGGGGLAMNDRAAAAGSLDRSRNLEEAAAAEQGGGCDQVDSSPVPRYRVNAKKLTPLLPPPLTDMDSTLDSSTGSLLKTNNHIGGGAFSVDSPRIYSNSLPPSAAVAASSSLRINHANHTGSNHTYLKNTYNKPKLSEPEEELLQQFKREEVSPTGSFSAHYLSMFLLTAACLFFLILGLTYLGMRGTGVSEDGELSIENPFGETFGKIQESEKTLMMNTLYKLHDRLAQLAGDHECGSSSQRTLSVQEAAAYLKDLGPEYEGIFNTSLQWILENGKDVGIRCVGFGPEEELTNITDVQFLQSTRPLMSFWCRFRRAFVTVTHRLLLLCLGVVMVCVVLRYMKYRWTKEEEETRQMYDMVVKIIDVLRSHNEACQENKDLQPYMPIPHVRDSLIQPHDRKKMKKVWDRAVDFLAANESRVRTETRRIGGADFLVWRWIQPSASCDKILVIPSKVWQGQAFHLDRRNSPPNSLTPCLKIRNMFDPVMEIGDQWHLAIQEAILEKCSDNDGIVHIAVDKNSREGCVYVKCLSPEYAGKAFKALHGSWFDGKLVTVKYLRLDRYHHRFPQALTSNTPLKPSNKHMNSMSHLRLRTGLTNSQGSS
Assay: LEMD3-PPM1α PLA in HFFs on glass; significant in cytoplasm and nucleus
Method: In vitro PLA: Protein-protein PLA was per-formed with antibody pairs listed in Table 4 as described in (42) with the following modifications: cells were plated on FN-coated glass or hydrogels (Matrigen, Brea, Calif.). All primary antibody in-cubations were performed for 16-24 hours at 4 C and cells were counter-stained with 1:40 phalloidin-488 or phalloidin-546 in 1×PBS for 30 minutes at room tempera-ture and/or further processed for IF imaging using the procedure recommended in Sigma's PLA Resource Center. For all recombinant LEMD3 and C-terminal fragment experiments, HFFs were electroporated as above and allowed to culture for 24 hours on 10 µg/mL fibronectin coated glass or hydrogels before fixation. For LEMD3-phospho-Smad2/3, LEMD3-Smad2/3+TGFβ and for Smad2/3-Smad4 PLA assays: cells were treated 90 minutes before fixation with 50 µg/mL for LEMD3- and CTF-Smad2/3 assays, 100 µg/mL TGFβ for LEMD3-phospho-Smad2/3 experiments and 500 µg/mL TGFβ for Smad2/3-Smad4 experiments. […] Imaging and analysis were performed as described for high-resolution ex vivo PLA signals except that no tissue autofluorescence signal was measured or needed to be subtracted and, when appro-priate, other IF signal (e.g. FLAG) were measured in parallel. […] Instead the PLA signal was quantified as the PLA volume divided by the nuclear intensity for each image.

binding result: binds
B1: Protein Phosphatase, Mg2+/Mn2+ Dependent 1α (PPM1α) (enzyme, human, UniProt P35813 2-382, looked up)
chain: GAFLDKPKMEKHNAQGQGNGLRYGLSSMQGWRVEMEDAHTAVIGLPSGLESWSFFAVYDGHAGSQVAKYCCEHLLDHITNNQDFKGSAGAPSVENVKNGIRTGFLEIDEHMRVMSEKKHGADRSGSTAVGVLISPQHTYFINCGDSRGLLCRNRKVHFFTQDHKPSNPLEKERIQNAGGSVMIQRVNGSLAVSRALGDFDYKCVHGKGPTEQLVSPEPEVHDIERSEEDDQFIILACDGIWDVMGNEELCDFVRSRLEVTDDLEKVCNEVVDTCLYKGSRDNMSVILICFPNAPKVSPEAVKKEAELDKYLECRVEEIIKKQGEGVPDLVHVMRTLASENIPSLPPGGELASKRNVIEAVYNRLNPYKNDDTDSTSTDDMW
notes: whole, on cells; Endogenous protein inside fixed HFFs, detected by PLA with antibody 7F12; also called PPM1a
